Measured values taken from doi:10.64898/2025.12.17.694860, “Structural basis for the inhibition of Trypanosoma brucei enolase by a camelid single-domain antibody” (bioRxiv, 2025).

Legend:
[1] = target: T1, Trypanosoma brucei enolase (Trypanosoma brucei (sequence identical …)); assay: SEC; conditions: both partners purified
T1 construct: Enolase (phosphopyruvate hydratase) of Trypanosoma brucei; printed MM = 48.4 kDa; Homodimer by analytical SEC and in the crystal; also called TbrENO; T. brucei enolase; source: E. coli, purified (IMAC, SEC); not shown: His tag, N-terminal, kept

[2] = target: T1, Trypanosoma brucei enolase; assay: ITC; conditions: both partners purified

B1: sdAbR1-10 (VHH)
VHH: QVQLQESGGGLVQPGGSLRLSCAAPGSIFSIFSGNIMGWYRQAPGKQRDFVASISSGGATNYADSVKGRFTISRDNAKNTVYLQMNNLKPEDTAVYYCNTVGGVHTNSWGQGTQVTVSS
stoichiometry N [1]: 2 sdAbR1-10 per TbrENO dimer
Kd [2]: ~20 nM
stoichiometry N [2]: ~1 sdAbR1-10 per TbrENO monomer
